In the nanobody polyreactivity screen of Harvey et al. (2022):

Assay: yeast display, Sf9 membrane polyspecificity reagent, FACS + sequencing; frameworks hold sequencing errors
Method in brief: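 Nanobodies from a synthetic yeast display library (Saccharomyces cerevisiae BJ5465), induced 36–48 hours with galactose, were stained 1 hour at 4 °C with 10% biotinylated, detergent-solubilized Sf9 membrane reagent, enriched on streptavidin microbeads, then FACS-sorted. Anti-HA (expression) and streptavidin (reagent binding) fluorescence set low and high (top ~1%) gates. Polyreactivity labels come from the gate of origin. Genes were colony-PCR amplified, MiSeq 2 × 250 sequenced and filtered by CDR length.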

QVQLVESGGGLVQAGGSLRLSCAASGSIFHYNAMGWYRQAPGKERELVAAISWRGGTTYYADSVKGRFTISRDNAKNTVYLQMNSLKPEDTAVYYCNRAYVYTYQRRDYDYWGQGTQVTVSS
polyreactivity (PSR sort gate): low polyreactivity

QVQLVESGGGLVQAGGSLRLSCAASGFIFDYYAMGWYRQAPGKERELVAAITRDGGGTYYADSVKGRFTISRDNAKNTVYFQMNSLKPEDTAVYYCAARTAYYHGSKYYYRGQGTQVTVSS
polyreactivity (PSR sort gate): high polyreactivity

QVQLVESGGGLVHAGVSLRLSCAASGIIFAHYAKGWYRQAPGKERELVAAISSSGATTYYADSVKGRFTISRDNAKNTVYLQMNSLKPEDTAVYYCNTETYHVRRLFDYWGQGTQVTVSS
polyreactivity (PSR sort gate): low polyreactivity

QVQLVESGGGLVQAGGSLRLSCAASGSIFWFNAMGWYRQAPGKERELVAAISTGGGTNYADSVKGRFTISRDNAKNTLYLKMNSLKPEDTAVYYCATYKVSRYISYDYWGQGPQVTVSS
polyreactivity (PSR sort gate): low polyreactivity

QVQLVESGGGLVQAGGSLRLSCAASGFTFYLYAMGWYRQAPGKERELVAAITYSAGSTYYADSVKGRFTISRDNAKNTVYLQMNSLKPEDTAVYYCAKRGHYRAWGGGGYWGQGTQVTVSS
polyreactivity (PSR sort gate): low polyreactivity

QVQLVESGGGLVQAGGSLRLSCAASGRILYGYAMGWYRQAPGKERELVASIPWSGGSTYADSVKGRFTISRDNAKNTVYLQMNSLKPEDTAVYYCATRRGPKWQWLTYGYWGQGTQVTVSS
polyreactivity (PSR sort gate): low polyreactivity

QVQLVESGGGLVLAGGSLRLSCAASGSTFGGYAMGWYRQATGKERELVAAISGSGVRTYYADSVKGRFTISRDNAKNTVYLQMNSRKPEDTAVYYCAKRVRYPGDRYYYWGQGTQVTVSS
polyreactivity (PSR sort gate): high polyreactivity

QDQLVDSGGGLLQAGGSLRLSCAASGSTFHPYAMGWYRQAPGKERELVAAITFSGGSTYADSVKGRFTISRDNAKNTVYIQMNSLKPEDTAVYYCAAEWWYWRGWRDYWGQGTQVTVSS
polyreactivity (PSR sort gate): low polyreactivity

QVQLVESGGGLVQAGGSLRLSCAASGRIFPDNTMGWSRQAPGKERELVAVITYSGGSTYYADSVKGRFTISRDNAKNTVYLQMNSLKPEDTAVYYCAKTLGSQNYDFDYWGQGTQVTVSS
polyreactivity (PSR sort gate): low polyreactivity

QVQLVESGGGLVQAGGSLRLSCAASGITFGSYAMGWYRQAPGKEREFVAAISLSGGNTYYADSEKGRFTISRDNAKNPVYLQMNSLKPEDTAVYYCAADPFSSYYKMEYWGQGTQVTVSS
polyreactivity (PSR sort gate): high polyreactivity

QVQLVESGGGLVQAGGSLRLSCAASGSTFDYYALGWYRQAPGKETELVAAISRSGVRTYYADSVKGRFTISRDNAKNTVYLQMNSLKPEDTAVYYCAAQVIPKFDWGQGTQVTVSS
polyreactivity (PSR sort gate): high polyreactivity

QVQLVESGGGLVQAGGSLRLSCAASGRILYRYAMGWYRQAPGKERELVAAISYSGGSTSYADSVKGRFTISRDNAKNTVYVQMNSLKPEDTAVYYCAAAYYLLRYKKRYDYWGQGTQVTVSS
polyreactivity (PSR sort gate): high polyreactivity

QVQLVESGGGLVQAGGSLRLSCAASGSTFGVNAMGWYRQAPGKERELVAAITRRGSSTYYADSVKGRFTNSRDNAKNTVYLQMNSLKPEDTAVYFCAADLHYRPGFRYGYWGQGTQVTVSS
polyreactivity (PSR sort gate): high polyreactivity

QVQLVESVGGLVQAGGSLRLSCPASGSTFTDYAMGWYRQAPGKERELVAANSWSGGSTYYADSVKGRFTISRDNAKNTVYLQMNSLKPEDTAVYYCAFRYHGYDYWGQGTQVTVSS
polyreactivity (PSR sort gate): high polyreactivity

QVQLVESGGGLVQAGGSLRLSCAASGITFYVYAMGWYRQAPGKERELVASITSGGGSTDYADSVKGRFTISRDNAKNTVYLQMNSLKPEDTAVYYCAARYPLLNQLYDFDYWGQGTQVTVSS
polyreactivity (PSR sort gate): low polyreactivity

QVQLVESGGGLVQAGGSLRLSCAASGRISVFNAMGWYRQAPGKERELVAAITSGGSTNYADSVKGRFTISRDNAKNTVYLQMNSLKPEDTAVYYCNADVYHSHEPHYDYWGQGTQVTVSS
polyreactivity (PSR sort gate): low polyreactivity

QVQLVESGGGLVQAGGSLRLICAASGFTFGGYAMGWYRPAPVKERELVAAINGNGGRTYSADSVKGRFTISRDKAKNTVYLQMISLKPEDTAVYYCYAAYRQHYRYYYWGQGTQVTVSS
polyreactivity (PSR sort gate): high polyreactivity

QVQLVESGGGLVQAGGSLRLSCAASGFTLRRNAIGWYRQAPGKERELVAAISSSGSTYYADSVKGRFTISRDNAKNTVYLQMYSLKPEDTAVYYCAAQPGRRAGRSGFDYWGQGTQVNVSS
polyreactivity (PSR sort gate): high polyreactivity

QVQLVESGGGLVQAGGSLRLSCAASGSIFPYYVMGWYRQAPGKERELVAAISTSDGSTYADSVKGRFTISRDNAKNTVYLQMNSLKPEDTAVYYCAVANVYYEGYDYWGQGTQVTVSS
polyreactivity (PSR sort gate): low polyreactivity

QFQLVESGGVLDQAGGSLRLSCAASGSNFTIYAIGWYRQAPGKERELVADISSGGSTYYADSVKGRFTISRDNAKNTVYLQMNSLNPEDTAVYYCAAGVFFFTFVYWGQGTQVTVSS
polyreactivity (PSR sort gate): low polyreactivity

QDQLVESGGGLVQAGGSLRLICAASGSIFTFYDMGWYRQAAGNERELVAAISSGGSTTYADSVKGRFTISRDNAKNTVYLQMNSLKPEDTAFYYCAADSQPYLYPVEYDYWRQGTQVTVSS
polyreactivity (PSR sort gate): low polyreactivity

QVQLVESGGGLVQAGGSLRLSCAASGRTLTGNAMGWYRQAPGKERELVAAITARGGSTYYADSVKGRFTISRDIAKNTVYLQMNSLKPEDSAVYYCATLPVRIRRDYWGQGTQVTVSS
polyreactivity (PSR sort gate): high polyreactivity

QVQLVESGGRLVQAGGSLRLSCAASGFIFWSYAMGWYRQARGKERELVAAISWSGGRTYYADSVKGRFTISRDNAKNTVYLQMNSLKPEDTAVYYCAAVKRYSSQYPALDYWGQGTQVTVSS
polyreactivity (PSR sort gate): high polyreactivity

QVQLVESGGGIVQAGGTLRLSCAASGSTFKNKAMGCNRHAPGKETEFVAGITRRGTSTYYADSVKGRFTISLDNAKNSVYLQMNSLKPEDTSVYYCAARAWYPSRYDYWGQGTLVTVSS
polyreactivity (PSR sort gate): high polyreactivity

QVQLVESGGGLVQAGGSLRLSCAASGRIFGTNSIGWYIQAPRKERELVSAISSSTSTNYADSVKGRFTISRDNAKNTVYLLMYSLKRDDTAFYYFDADELRTDWDYAQGYDYWGQGTQVTVSS
polyreactivity (PSR sort gate): low polyreactivity

QVQLVESVGGLVQAGGSLRLRCSASGSIFKYNAMGWYRQAPGKVRELVADITRSGGRTYYADSVKGRFTISRDNEKNTVYVQMNSLKTEDTAVYYCYAVTPTTLGDYWGQGTQVTVSS
polyreactivity (PSR sort gate): high polyreactivity

QVQLVESGGGLVQAGGSLRLSCAASGRIFYGYTMGWYRQAPGKERELVAAITQRGGNTHYADSVKGRFTISRDNGKNTVYLHMNRLKPEDTAVYYCAAKYYPYVRGVQYYYWGQGTQVTVSS
polyreactivity (PSR sort gate): high polyreactivity

QVQLVESGGGLVQAGGSLRLSCAASGIIFDSYAMGWYRQAPGKERELVAAITSDSGRTYYADSVKGRFTISRDNAKNTVYLHMNSLKPEDTAVYYCNADAYTYPTARYYWGQGTQVTVSS
polyreactivity (PSR sort gate): low polyreactivity

QVQLVESGGGLVQAGGSLRLSCAASGSTFYYNTLGWYRQAPGKERELVAAISRSGGSTYYADSVKGRFTISRDNAKNTVYLQMNSLKPEDTAVYYCAARIIGARNLYGYWGQGTQVTVSS
polyreactivity (PSR sort gate): high polyreactivity

QVQLVESGGGLVQAGGSLRLSCAASGLIFKWYGMGWYRQAPGKERELVAAITENGGSTYYADSVKGRFTISRDNAKNTVYLQMNSLKPEDTAVYYCAAETWADWYSEFYWGQGTQVTVSS
polyreactivity (PSR sort gate): high polyreactivity

QVQLVESGGGLVQAGGSLRLTCAASGRIFSRNTMGWYRQAPGKERELVATISWSGSRTYYADSVKGRFTISRDNAKNTVYLQMNSLKPEDTAVYYCAAVVPLSRSYDYYYWGQGTQVTVSS
polyreactivity (PSR sort gate): high polyreactivity

QVQLVESGGGLVQAGGSLRLSCAASGSTSVQYAMGWYRQAPGKERELVAAIDRSGGSTSYADSVKGRFTISRDNAKNTVYLQMNSLKPEDTAVYYCNADPVRSTYSYDYWGQGTQVTVSS
polyreactivity (PSR sort gate): low polyreactivity

QVQLVESGGGLVQAGGSLRLSCAASGSTFVYYAMGWYRQAPGKERELVAAITSGDSTYYADSVKGRFTISRDNAKNTVYLQMNSLKPEDTAVYYCAKRGGYKWIYGYWGQGTQVTVSS
polyreactivity (PSR sort gate): low polyreactivity

QVQLVESGGGLVQARGSLRLSCAASGRIFRYYAMGSYRQAPGKERELVASITSGARTSYADSVKGRFTISRDIAKNTVYLQMNSLKPEDTAVYYCAAGGRARTYYYWGQGTQVTVSS
polyreactivity (PSR sort gate): high polyreactivity

QVQLVESGGGIVQAGGSLRLICAASGSIFNGYALGWYRQAPGKERDLVAAISWRGGTTYYADSVKGRFSISRDTAKNTVYLQMNSLKPEDTAVYYCAARHFARMGYWGQGTQVTVSS
polyreactivity (PSR sort gate): high polyreactivity

QVQLVESGGGLVQAGGSLRLSCAASGSIFGSNAMGWYRQAPGKERELVASITSSGGSTHYADSVKGRFTISRDNAKNTVYLQMNSLKPEDTAVYYCATRAYGYYRWLYDYWGQGTQVTVSS
polyreactivity (PSR sort gate): low polyreactivity

QVQLVESGGGLVQAGGSLRLSCAASGSTFKYYAMGWYRQATGKERELLAAITWRGGSTYYADSVKGRFTISRDNAKNSVYLLMKSLKPEDTAVYYCARQRYYGLRTLMEHWGQGTQVTVSS
polyreactivity (PSR sort gate): high polyreactivity

QDQVVESGGGLVQAGGSLRLSCAASGRTFAIYAMGWYRQAPGKEREFVAAITWRSGSTYYADSVKGRFTISRDNAKNTVYLQMMSVKPEDTAVYFCAAYPYSYLQLMDYWGQGTQVTVSS
polyreactivity (PSR sort gate): high polyreactivity

QLQLVESGGVLVQAGGSLRLSCAASGTFYGYVMGWYRQAPGKERELGASINWSGGSTNYADSVKGRFTISRDNAKNTVFFQMNSRKPEDTAVYYCNADWGWGAYDYWGQGTQVTVSS
polyreactivity (PSR sort gate): low polyreactivity

QVQLVESGGGLVQAGGSLRLSCAASGFIFRDNAKGWYRQAPGKERELVAAISSGGTTKYADSVKGRFTISRDNAKNTVYLQMNSLKPEDTAVYYCAKGYAARIWRIYSRLYYWGQGTQVTVSS
polyreactivity (PSR sort gate): high polyreactivity

QVQLVESGGGLVQEGGSLSLSCAASGYIFYIYAMGWYRQAPGKERELVATISWSGGDTYYADSVKGRFTISRDNANNTVYLQMNSLNPEDTAVYYCATEVGQSWAGDGDYEYWGQGTQVTVSS
polyreactivity (PSR sort gate): low polyreactivity

QVQLVESGGGLVQAGGSLRLSCAASGFTFPYYSMGWYRQAPGTERELVAPISYNGGSTYYADSVMGRFTISRDNAKNTVYLQMNSRNPEDTAVYYCNAVYSDSGVVGYYYWGQGTQVTVSS
polyreactivity (PSR sort gate): high polyreactivity

QVQLVESGGGLVQAGGSLRLSCAASGSIFKKYAMGWYRQAPGKERELVAAITRGTYYADSVKGRFTISRDNAKNTVYLQMNSLKPEDTAVYYCNREYWGRGYYRVRGEYDYWGQGTQVTVSS
polyreactivity (PSR sort gate): low polyreactivity
